Here are results for one protein from paper PMC3785714 (Biochemical Society transactions, 2012).

The data set deals with the molecule itself.

B1: p150CC1 (residues 221-509) of dynactin p150Glued (domain or fragment, UniProt P13496 221-509, looked up)
chain: ALLEAQKTSAELQAQLADLTEKLETLKQRRNEDKERLREFDKMKIQFEQLQEFRTKIMGAQASLQKELLRAKQEAKDAIEAKEQHAQEMADLADNVEMITLDKEMAEEKADTLQLELESSKERIEELEVDLELLRSEMQNKAESAIGNISGGGDSPGLSTYEFKQLEQQNIRLKETLVRLRDLSAHDKHDIQKLSKELEMKRSEVTELERTKEKLSAKIDELEAIVADLQEQVDAALGAEEMVEQLAEKKMELEDKVKLLEEEIAQLEALEEVHEQLVESNHELELDLR
For the protein B1, the “stoichiometry N” value was 2.

What is called stoichiometry N is a count of units in the complex or per binding partner.
